Series [1] addresses T1, TGF-beta1 (hTGF-beta1) (Homo sapiens, UniProt P01137 P01137:279-390). Kind of series: filter; monophasic, plateau about 10%; Table 3 and Table 4 sequences differ slightly. To be noted: tags: R&D Systems; biotinylated form (NFTG0) used for BIAcore; chain copies: 2. (In general: SPR reads the build-up and loss of mass on a sensor chip optically.)
The target in series [2] is T1, TGF-beta1 (hTGF-beta1). As to the kind of experiment: filter; biphasic; Kd1 3.7±0.6 nM. The following applies: tags: R&D Systems; biotinylated form (NFTG0) used for BIAcore; chain copies: 2.
For series [3], the target named is T1, TGF-beta1 (hTGF-beta1). As to the kind of experiment: cell_activity; MLEC assay. The following applies: tags: R&D Systems, biotinylated form (NFTG0) used for BIAcore, chain copies: 2. The method, then:
Cells were plated at 10^5/mL in 96-well plates in MEM, 10 mM HEPES and 0.2% FBS. Following 4 hours of incubation at 37° C., when cells appeared to attach to the well surface, TGFβ1 was added at 2 pM with or without TGFβ1 ligands that ranged from 0.1 nM to 1 µM. In a second assay performed in order to determine cross-species reactivity, rather than using hTGFβ, a conditioned serum-free medium (CM) was used. CM was conditioned by culturing it in murine 3T3 fibroblast for 48 hours. Before use, this conditioned medium was heat treated at 80° C. for 10 minutes to activate the 3T3 cell derived TGFβ and then it was diluted to 50% and supplemented with 0.2% murine serum. In each assay, hTGFβ1 (or CM) was diluted appropriately in MEM and FBS (0.2% or murine serum) and the ligands were diluted in MEM. TGFβ1 (or CM) and ligand dilutions at 10× the final concentration were premixed at equal volumes and then were added to the cells. Following addition of the TGFβ1 (or CM)-ligand mixture, the cells were incubated for 16–18 hours prior to addition of ^3H-thymidine at 0.25 µCi per well and continued incubation for 7–8 additional hours. After incubation, the cells were washed and harvested with SKATRON filtering units and ^3H-thymidine incorporation in cellular DNA was quantitated by scintillation counting in Ecoscint. Data were plotted and analyzed as described in Park et al. (1990) J. Exp. Med. 171:1073) and Dower et al. (1984) J. Immunol.

In series [4] the target is T1, TGF-beta1 (hTGF-beta1). Kind of series: filter; monophasic. To be noted: tags: R&D Systems; biotinylated form (NFTG0) used for BIAcore; chain copies: 2.
Series [5] concerns the target T1, TGF-beta1 (hTGF-beta1). As to the kind of experiment: filter; biphasic; Kd1 4.2±2.2 nM. To be noted: tags: R&D Systems; biotinylated form (NFTG0) used for BIAcore; chain copies: 2.
In series [6] the target is T1, TGF-beta1 (hTGF-beta1). As to the kind of experiment: filter; biphasic; Kd1 3.7±1.5 nM. The following applies: tags: R&D Systems; biotinylated form (NFTG0) used for BIAcore; chain copies: 2.
Series [7] addresses T1, TGF-beta1 (hTGF-beta1). As to the kind of experiment: filter; biphasic; Kd1 14.0±6.4 nM. The following applies: tags: R&D Systems; biotinylated form (NFTG0) used for BIAcore; chain copies: 2.
Series [8] concerns the target T1, TGF-beta1 (hTGF-beta1). As to the kind of experiment: filter; biphasic; Kd1 8.5±1.8 nM. The following applies: tags: R&D Systems; biotinylated form (NFTG0) used for BIAcore; chain copies: 2.
The target in series [9] is T1, TGF-beta1 (hTGF-beta1). As to the kind of experiment: filter; biphasic; Kd1 5.6±2.0 nM. To be noted: tags: R&D Systems; biotinylated form (NFTG0) used for BIAcore; chain copies: 2.
Series [10] addresses T1, TGF-beta1 (hTGF-beta1). As to the kind of experiment: filter; biphasic; Kd1 4.4±1.6 nM. To be noted: tags: R&D Systems; biotinylated form (NFTG0) used for BIAcore; chain copies: 2.
Series [11] addresses T1, TGF-beta1 (hTGF-beta1). As to the kind of experiment: filter; biphasic; Kd1 13.5±4.2 nM. To be noted: tags: R&D Systems; biotinylated form (NFTG0) used for BIAcore; chain copies: 2.
The target of series [12] is T1, TGF-beta1 (hTGF-beta1). As to the kind of experiment: filter; monophasic, plateau 8%. The following applies: tags: R&D Systems; biotinylated form (NFTG0) used for BIAcore; chain copies: 2.
Series [13] addresses T1, TGF-beta1 (hTGF-beta1). Kind of series: filter; biphasic; Kd1 58.2 nM; P2 1.2%. The following applies: tags: R&D Systems; biotinylated form (NFTG0) used for BIAcore; chain copies: 2.

T1 sequence (P01137 279-390, one chain of several): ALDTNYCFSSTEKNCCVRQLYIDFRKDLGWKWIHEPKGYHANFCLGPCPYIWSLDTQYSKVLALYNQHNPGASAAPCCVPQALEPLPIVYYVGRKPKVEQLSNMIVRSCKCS

B1: 20-05 (ssRNA)
RNA: GGGAGGACGAUGCGGUGUCUCUACCUUAGGUUGAUUCCUUCUACCGCAGACGACUCGCCCGA
modifications: 2'-F C and U
Consider B1, for which, in [1], the Kd – broadly, the free concentration of one partner at which half of the binding sites on the other are occupied at equilibrium, for simple one-to-one binding – was determined as 0.11 nM.

B2: 40-06 (ssRNA)
RNA: GGGAGGACGAUGCGGUUAGGGGCGUCAACACCGCUAUCAUAAUUUUCGCCUUCCCCAGACGACUCGCCCGA
modifications: 2'-F C and U
For B2, the Kd in series [2] amounted to 0.0016 nM.

B3: 40-60 (ssRNA)
RNA: GGGAGGACGAUGCGGUUAUGGGCGUCAACACCGCUAUUACAGUUUUCGCCUCCCCCAGACGACUCGCCCGA
modifications: 2'-F C and U
In the case of B3, affinity in [3] (label: 5'-biotin for BIAcore specificity, proposed double pseudoknot) was put at a Ki of 0.8 nM.

B4: 40-14 (ssRNA)
RNA: GGGAGGACGAUGCGGCAUUAUGGCGUCAACAUGCCGGUUUUCGAUUCUCAUUGUCCAGACGACUCGCCCGA
modifications: 2'-F C and U
For B4, the Ki – broadly, a measure of affinity in units of concentration, obtained from inhibition or displacement – in series [3] is 3.9 nM.

B5: 40-08 (ssRNA)
RNA: GGGAGGACGAUGCGGCGCAAGGUUACGCCGUCGGACCCUGCUGCCAACAUCCUCCCAGACGACUCGCCCGA
modifications: 2'-F C and U
With B5, the affinity in [4], expressed as Kd, was 15.4 nM.

B6: 40-19 (ssRNA)
RNA: GGGAGGACGAUGCGGUUAGCGCGAGUUCAACACCGCAUGUGAUUCUUUCGCCUCCCAGACGACUCGCCCGA
modifications: 2'-F C and U
Regarding B6, the Ki in series [3] is 28 nM. Binding in [5] was characterised by a dissociation constant (Kd) of 0.0037 nM.

B7: 40-56 (ssRNA)
RNA: GGGAGGACGAUGCGGUUAGGGCGUCAACACCGCUAUUACAACUUUCGCCUCCCCAGACGACUCGCCCGA
modifications: 2'-F C and U
Regarding B7, affinity in series [3] was put at a Ki of 7.4 nM.

B8: 30-15 (ssRNA)
RNA: GGGAGGACGAUGCGGUUGACCGUUAAGACGGCAUGAUGUGGUCCGCAGACGACUCGCCCGA
modifications: 2'-F C and U
Take B8: in series [4], binding was characterised by a dissociation constant (Kd) of 55.3 nM.

B9: 30-22 (ssRNA)
RNA: GGGAGGACGAUGCGGUUAACCGUAAAGACGGCAUGAUGUUUUCCGCAGACGACUCGCCCGA
modifications: 2'-F C and U
As to B9, the Kd in series [4] is 2.47 nM.

B10: 40-55 (ssRNA)
RNA: GGGAGGACGAUGCGGUUAGGGGCGUCAACACCGCUAUUCAACCUUCGCUUCCCCAGACGACUCGCCCGA
modifications: 2'-F C and U
B10 had a Ki in series [3] of 2.9 nM.

B11: 40-77 (ssRNA)
RNA: GGGAGGACGAUGCGGUUAUGGGCGUCAACACCGCUAUUACAACUUUCGCCCCCCAGACGACUCGCCCGA
modifications: 2'-F C and U
In series [6], B11 came in with a Kd of 0.00173 nM.

B12: 40-13 (ssRNA)
RNA: GGGAGGACGAUGCGGAGCAAGGUUACGAGGUCGGACCCUGCUGCCAACAUCCUCCCCAGACGACUCGCCCGA
modifications: 2'-F C and U
For the molecule B12, in series [4], the Kd amounted to 15.4 nM.

B13: 40-44 (ssRNA)
RNA: GGGAGGACGAUGCGGUGCAAGGUUACGCCGUCGGACCCUGCUGCCAACAUCCUCCCCAGACGACUCGCCCGA
modifications: 2'-F C and U
Regarding B13, binding in [4] was put at a Kd of 11.1 nM.

B14: 40-33 (ssRNA)
RNA: GGGAGGACGAUGCGGAGCAAGGUUACGCCGUCGGACCCUGCUGCCAACAUCCUCCCCAGACGACUCGCCCGA
modifications: 2'-F C and U
Consider B14, for which the Kd in series [4] is 26.6 nM.

B15: 40-20 (ssRNA)
RNA: GGGAGGACGAUGCGGUACAAGGUUACGCCGUCGGACCCUGCUGCCAACAUCCUCCCCAGACGACUCGCCCGA
modifications: 2'-F C and U
In the case of B15, in [4], the Kd turned out to be 11.2 nM.

B16: 40-40 (ssRNA)
RNA: GGGAGGACGAUGCGGCCCAAGGUUACGCCGUCGGACCCUACUGCCAACUUCCUCCCCAGACGACUCGCCCGA
modifications: 2'-F C and U
In series [4], B16 gave a Kd of 18 nM.

B17: 30-34 (ssRNA)
RNA: GGGAGGACGAUGCGGUGUCUAUAGCCUUGAUUACAUCAUCUGCCUCAGACGACUCGCCCGA
modifications: 2'-F C and U
Consider B17, for which the Kd in series [4] came out at 9.5 nM.

B18: 30-08 (ssRNA)
RNA: GGGAGGACGAUGCGGCGGAAUUUUUGUUGAGCCGUAUGCCGCCAGACGACUCGCCCGA
modifications: 2'-F C and U
In the case of B18, the Kd in series [4] amounted to 10.2 nM.

B19: 40-36 (ssRNA)
RNA: GGGAGGACGAUGCGGGUCAAGGUUACGCCGUCGGACCCUACUGCCCCCAGACGACUCGCCCGA
modifications: 2'-F C and U
For the molecule B19, the Kd in series [4] worked out at 41.7 nM.

B20: 40-29 (ssRNA)
RNA: GGGAGGACGAUGCGGGACCCUUUUCUGCGAUUCAACUCGUACGUCUUCUCACGUGCAGACGACUCGCCCGA
modifications: 2'-F C and U
In series [4], B20 had a Kd of 10.9 nM.

B21: 40-12 (ssRNA)
RNA: GGGAGGACGAUGCGGGACCCUUGUCUGCGAUUCAACUCGUAGGUUUUCUCACGUGCAGACGACUCGCCCGA
modifications: 2'-F C and U
In turn, B21 yielded a Ki in series [3] of 6.88 nM.

B22: 40-38 (ssRNA)
RNA: GGGAGGACGAUGCGGAGAUAAUUAUCAGCGGUGGACGGGGUGCCGGUACUGCCGCCAGACGACUCGCCCGA
modifications: 2'-F C and U
In series [4], B22 returned a Kd of 21.8 nM.

B23: 40-32 (ssRNA)
RNA: GGGAGGACGAUGCGGUUAUGGGCGUCAACACCGCUAUUACAACUUUCGCCUCCAGACGACUCGCCCGA
modifications: 2'-F C and U
Take B23: the Kd in series [7] stood at 0.005 nM.

B24: 40-54 (ssRNA)
RNA: GGGAGGACGAUGCGGUUAGGGGCGUCAACACCGCUAUCAUAACUUUCGCUUCCCCAGACGACUCGCCCGA
modifications: 2'-F C and U
As to B24, in series [8], the Kd was 0.00675 nM.

B25: 40-64 (ssRNA)
RNA: GGGAGGACGAUGCGGUUAGGGGCGUCAACACCGCUAUUACAAUCUUCGUCUUCCCAGACGACUCGCCCGA
modifications: 2'-F C and U
Turning to B25, in series [9], the Kd is 0.0031 nM.

B26: 40-58 (ssRNA)
RNA: GGGAGGACGAUGCGGUUAUGGGCGUCAACACCGCUAUUACAACUUUCGCCUCCCCAGACGACUCGCCCGA
modifications: 2'-F C and U
Molecule B26 showed a Kd in [10] of 0.0053 nM. Moreover, the Ki in series [3] stood at 0.9 nM.

B27: 40-16 (ssRNA)
RNA: GGGAGGACGAUGCGGUUAGGGGCGUCAACACCGCUAUUACAUCUUUCGCCUCCCCAGACGACUCGCCCGA
modifications: 2'-F C and U
For B27, in series [3], affinity was put at a Ki of 0.6 nM.

B28: 40-61,76 (ssRNA)
RNA: GGGAGGACGAUGCGGUUAGGGGCGUCAACACCGCUAUUACAAUCUUCGCUUUCCCAGACGACUCGCCCGA
modifications: 2'-F C and U
In series [11], B28 had a Kd of 0.001 nM.

B29: 20-04 (ssRNA)
RNA: GGGAGGACGAUGCGGUGUCUUUAGCUUAGGUGAUUCCUUCUGCCGCAGACGACUCGCCCGA
modifications: 2'-F C and U
As for B29, the Kd in [12] worked out at 0.2 nM.

B30: 30-37 (ssRNA)
RNA: GGGAGGACGAUGCGGUGUCUUUGGCCUAGGUGAUUCCUUCUGCCGCAGACGACUCGCCCGA
modifications: 2'-F C and U
On to B30, for which the dissociation constant (Kd) in series [4] was found to be 2.65 nM.

B31: 30-43 (ssRNA)
RNA: GGGAGGACGAUGCGGUGUCUUUAGCCUAGGUGAUUCCUUCUGCCGCAGACGACUCGCCCGA
modifications: 2'-F C and U
In turn, B31 yielded a Kd in series [4] of 50.5 nM.

B32: 30-03 (ssRNA)
RNA: GGGAGGACGAUGCGGUGUCUUUAGCCCAGGUGAUUCCUUCUGCCGCAGACGACUCGCCCGA
modifications: 2'-F C and U
B32 showed a dissociation constant (Kd) in [13] of 0.262 nM.

The values above are taken from patent publication US6124449, “High affinity TGFβ nucleic acid ligands and inhibitors” (NeXstar Pharmaceuticals, Inc.).
